The record followed here is patent publication US8614103B2, “Compositions and methods for treating sphingosine-1-phosphate (S1P) related ocular diseases and conditions” (Lpath, Inc., priority 2006, dated 2013).

Test [1] concerns fibroblasts (Swiss 3T3, cardiac fibroblasts, WI-38). In words: S1P-stimulated fibroblast proliferation, migration, collagen expression, myofibroblast differentiation. The test is classed as cell-based. To be noted: 1 μg/mL antibody; 0.1-1 μM S1P. On the procedure:
See Example 7, below, for experimental details. […] In these experiments, fibroblasts were serum-starved and then treated with 0, 0.1, 0.5, or 1 μM S1P+/−1 μg/mL SPHINGOMAB for 12-24 hr. […] SPHINGOMAB neutralized each of these S1P effects. SPHINGOMAB reduced perivascular fibrosis in vivo in a murine model of a permanent myocardial infarction (E).
S1P makes profound contributions to wound healing by activating fibroblast migration, proliferation and collagen production; SPHINGOMAB neutralizes these effects. Several studies using multiple types of fibroblasts confirm S1P's ability to promote wound healing: 1) S1P increased Swiss-3T3 fibroblast proliferation as measured by ^3H-thymidine incorporation using standard methods (FIG. 7A); 2) S1P promoted the migration of cardiac fibroblasts in a standard scratch wound healing assay. […] In each of these assays, SPHINGOMAB neutralized S1P's. It is anticipated that ocular fibroblasts would respond similarly to S1P and SPHINGOMAB.

Test [2] can be described thus: Competitive ELISA for specificity / cross-reactivity against bioactive lipids. Format: binding. The following applies: for cross-reactivity to sphingosylphosphorylcholine (SPC): competitor SPC. The procedure: Screening of serum and cell supernatant for S1P-specific antibodies was by direct ELISA using a thiolated SIP analog as the antigen. A standard ELISA was performed, as described below, except that 50 ul of sample (serum or cell supernatant) was diluted with an equal volume of PBS/0.1% Tween-20 (PBST) during the primary incubation. ELISAs were performed in 96-well high binding ELISA plates (Costar) coated with 0.1 μg of chemically-synthesized thiolated-S1P conjugated to BSA in binding buffer (33.6 mM Na2CO3, 100 mM NaHCO3; pH 9.5). The thiolated-S1P-BSA was incubated at 37° C. for 1 hr. at 4° C. overnight in the ELISA plate wells. The plates were then washed four times with PBS (137 mM NaCl, 2.68 mM KCl, 10.14 mM Na2HPO4, 1.76 mM KH2PO4; pH 7.4) and blocked with PBST for 1 hr. at room temperature. For the primary incubation step, 75 uL of the sample (containing the S1P to be measured), was incubated with 25 uL of 0.1 ug/mL anti-S1P mAb diluted in PBST and added to a well of the ELISA plate. Each sample was performed in triplicate wells. Following a 1 hr. incubation at room temperature, the ELISA plates were washed four times with PBS and incubated with 100 ul per well of 0.1 ug/mL HRP goat anti-mouse secondary (Jackson Immunoresearch) for 1 hr. at room temperature. Plates were then washed four times with PBS and exposed to tetramethylbenzidine (Sigma) for 1-10 minutes. The detection reaction was stopped by the addition of an equal volume of 1M H2SO4. Optical density of the samples was determined by measurement at 450 nm using an EL-X-800 ELISA plate reader (Bio-Tech).
For cross reactivity, a competitive ELISA was performed as described above, except for the following alterations. The primary incubation consisted of the competitor (S1P, SPH, LPA, etc.) and a biotin-conjugated anti-S1P mAb. Biotinylation of the purified monoclonal antibody was performed using the EZ-Link Sulfo-NHS-Biotinylation kit (Pierce). Biotin incorporation was determined as per kit protocol and ranged from 7 to 11 biotin molecules per antibody. The competitor was prepared as follows: lipid stocks were sonicated and dried under argon before reconstitution in DPBS/BSA [1 mg/ml fatty acid free BSA (Calbiochem) in DPBS (Invitrogen 14040-133)]. Purified anti-S1P mAb was diluted as necessary in PBS/0.5% Triton X-100. Competitor and antibody solutions were mixed together so to generate 3 parts competitor to 1 part antibody. A HRP-conjugated streptavidin secondary antibody (Jackson Immunoresearch) was used to generate signal.
The humanized variants were tested for specificity in a competitive ELISA assay (FIG. 1) against S1P and several other biolipids. This assay has the added benefit to allow for epitope mapping.
(In general: In an ELISA, binding on a coated surface is turned into a signal by an enzyme label.)

The test system of a further test is HUVECs. Briefly: HUVEC tube formation on Matrigel. The following applies: co-incubated with S1P; GF-reduced Matrigel. The test is classed as cell-based, human. The procedure:
Experiments were performed as described by Visentin et al. (Cancer Cell 2006 March; 9(3):225-38).

Test [3] deals with VEGF- or bFGF-induced neovascularization. Briefly: In vivo Matrigel plug assay, VEGF or bFGF plugs, neovascularization. More on the design: species or system mouse. To be noted: 25 mg/kg i.p. every 48 hrs, 10 days. On the procedure: Endogenous S1P from the blood and surrounding tissue could supply a wound with pro-angiogenic stimuli. The ability of SPHINGOMAB to reduce endogenous S1P in a wound was investigated. Optimally stimulated plugs (Matrigel supplemented with 0.5 μg/mL bFGF or […] VEGF) were implanted into mice. Mice received i.p. injections of 25 mg/kg SPHINGOMAB or saline every 48 hrs starting 1 day prior to Matrigel implantation. Each treatment group (Matrigel, Matrigel plus GF or Matrigel plus GF and administered SPHINGOMAB) consisted of a minimum of 6 mice. After 10 days, the mice were treated with heparin, injected with Isolectin B4-FITC, the plugs excised, embedded in OCT freezing medium and sectioned.

The test system of a further test is perivascular fibrosis. Briefly: Permanent myocardial infarction model, perivascular fibrosis. The test is classed as in vivo, mouse. The following applies: 25 mg/kg from 48 hrs after surgery; two weeks. On the procedure: Studies evaluated the efficacy of SPHINGOMAB to reduce cardiac scar formation after permanent myocardial infarction (MI) via ligation of the left descending coronary artery in mice. Systemic administration of 25 mg/kg SPHINGOMAB or saline was initiated 48 hrs after surgery. Antibody administration at 48 hr. was chosen to allow normal, reparative scar formation to occur during the early remodeling phase and permit beneficial, S1P-stimulated angiogenesis immediately after the MI. Two weeks after the infarct, mice were sacrificed and fibrosis was accessed by Masson's trichrome staining of the cardiac tissue. […] As a control for any non-specific wound-healing responses, sham animals underwent thoracotomy without coronary artery ligation (FIG. 7E).

B1: LT1002: murine monoclonal antibody to S1P, IgG1 kappa, hybridoma clone 306D326.26 (antibody, listed as Mus sp., V domains shown)
VH: QAHLQQSDAELVKPGASVKISCKVSGFIFIDHTIHWMKQRPEQGLEWIGCISPRHDITKYNEMFRGKATLTADKSSTTAYIQVNSLTFEDSAVYFCARGGFYGSTIWFDFWGQGTTLTVS
VL: ETTVTQSPASLSMAIGEKVTIRCITTTDIDDDMNWFQQKPGEPPNLLISEGNILRPGVPSRFSSSGYGTDFLFTIENMLSEDVADYYCLQSDNLPFTFGSGTKLEIK
With B1, the “effect on S1P-stimulated fibroblast proliferation, migration, collagen expression, myofibroblast differentiation” value in test [1] was “neutralized”. Moreover, the “Specificity (ELISA)” value in test [2] (Table 7) is on record as “High”. In addition, the “recognition of ceramide-1-phosphate (C1P)” value in test [2] (competitor C1P, listed as anti-S1P mAb) was “no antibody binding was observed”. Moreover, the “cross-reactivity to dihydrosphingosine-1-phosphate (DH-S1P)” value in test [2] (competitor DH-S1P) is “did cross react”. Further, the “cross-reactivity to lysophosphatidic acid (LPA)” value in test [2] (competitor LPA, listed as anti-S1P mAb) is reported as “exhibited no binding”. The “cross-reactivity to sphingosylphosphorylcholine (SPC)” value in test [2] (listed as SPHINGOMAB) is given as “to a lesser extent”; in test [2] (listed as anti-S1P mAb) it was “binding was somewhat reduced”. The “capillary-like structure (tube) formation” value with HUVECs is on record as “failed to form capillary-like structures”. Besides, the “decrease in neovascularization of VEGF-containing plugs vs saline-treated” value in test [3] came to 5 fold. Further, the “decrease in neovascularization of bFGF-containing plugs vs saline-treated” value in test [3] (0.5 μg/mL bFGF) was determined as 8.5 fold. In addition, the “perivascular fibrosis after MI” value in the test with perivascular fibrosis was “almost complete abrogation of perivascular fibrosis”.
